Assay [1] concerns the target 12283-H08H (human, UniProt Q08722 19-139). Briefly: SPR. On the technique in general: SPR reads the build-up and loss of mass on a sensor chip optically.
Assay [2] has as its target human CD47 protein (antigen of the SPR affinity determination) (human, UniProt Q08722 19-139). Briefly: SPR.

B1: Hu004-68 (antibody, V domains shown)
VH: EVQLVESGGGLVQPGGSLRLSCAASGFTFSGYGMSWVRQAPGKGLEWVATITSGGTYTYYPDSVKGRFTISRDNAKNSLYLQMNSLRAEDTAVYYCARSLAGNAMDYWGQGTLVTVSS
VL: EIVLTQSPVTLSVSPGERATLSCRASQGVTSNLAWYQQKPGQAPRLLIYGASTRATGVPARFSGSGSGTEFTLTISSLQSEDFAVYYCQHRGTFGQGTKVDIK
As to B1, the Kd (in general, the free concentration of one partner at which half of the binding sites on the other are occupied at equilibrium, for simple one-to-one binding) in assay [1] stood at 222 nM.

B2: Hu004-73 antibody (full-length human IgG1, kappa) (antibody, V domains shown)
VH: EVQLVESGGGLVQPGGSLRLSCAASGFTFSGYGMSWVRQAPGKGLEWVATITSGGTYTYYPDSVKGRFTISRDNAKNSLYLQMNSLRAEDTAVYYCARSLAGNAMDYWGQGTLVTVSS
VL: DIQMTQSPSSLSASVGDRVTITCRAGQPLNNYLNWYQQKPGKPPRLLIYAASTLQSGVPSRFSGSGSGTDFTLTISGLQSEDFASYFCQHRVTFGPGTKVDVR
Molecule B2 came in with a Kd in assay [2] of 184 nM.

The values above are taken from US20240368279A1 (published 2024).
